Measured values reported in patent US20260242478A1 (published 2026).
Where two headings read alike, the source gives them in different places. Where no end group is shown, it is not given here.

Assays:
[1] = target: T1, Peptide-181 (cysteine pairing not given here; also: biotinylated (site not given here)); test: ELISA, biotinylated peptide captured on neutravidin, PSMA Fab titrated
T1 construct: PSMA peptide mask (P2)
T1 peptide: PELRCVPFWMCSFN

[2] = target: T2, Peptide-180 (cysteine pairing not given here; also: biotinylated (site not given here)); test: as above
T2 construct: PSMA peptide mask (P2)
T2 peptide: IAVLCQPNWMCAGF

[3] = target: T3, Peptide-179 (cysteine pairing not given here; also: biotinylated (site not given here)); test: as above
T3 construct: PSMA peptide mask (P2)
T3 peptide: LMKWCTPRWMCAAE

[4] = target: T4, Peptide-205 (cysteine pairing not given here; also: biotinylated (site not given here)); test: BLI (Octet), biotinylated peptide on streptavidin sensor, PSMA Fab titrated, 1:1 model
T4 construct: PSMA peptide mask (P2)
T4 peptide: MCQWDKINYWMDCD

[5] = target: T5, Peptide-202 (cysteine pairing not given here; also: biotinylated (site not given here)); test: as above
T5 construct: PSMA peptide mask (P2)
T5 peptide: MCQWDELNYWMDCD

[6] = target: T6, Peptide-204 (cysteine pairing not given here; also: biotinylated (site not given here)); test: as above
T6 construct: PSMA peptide mask (P2)
T6 peptide: QCTWNEKTWWMECE

[7] = target: T2, Peptide-180; test: as above
Experimental: (§1) After a short association period, sensors were transferred into buffer and the dissociation of bound Ab-1 was measured. Association and dissociation signals were recorded in real time and analyzed using a 1:1 binding model within the instrument software. Analysis using a 1:1 binding model enabled the calculation of the on and off rate constant as well as affinity, Kn.

[8] = target: T7, Peptide-194 (cysteine pairing not given here; also: biotinylated (site not given here)); test: as above
T7 construct: PSMA peptide mask (P2)
T7 peptide: SKLLCVPPWMCYHV

[9] = target: T3, Peptide-179; test: as above
Experimental: as §1

[10] = target: T3, Peptide-179; test: ELISA, biotinylated peptide captured on neutravidin, PSMA Fab titrated

- EC50 [1]: 3 nM
- EC50 [2]: 33 nM
- EC50 [3]: 5.9 nM
- Off rate t1/2 [4]: < 1 min
- Off rate t1/2 [5]: < 1 min
- Off rate t1/2 [6]: < 1 min
- Off rate t1/2 [7]: 0.75 min
- Off rate t1/2 [8]: < 1 min
- Off rate t1/2 [9]: 1.09 min
- EC50 [10]: 120 nM
B1: PSMA Fab (SEQ ID NOs: 19, 20) (Fab, V domains shown)
VH: QVQLVESGGGVVQPGRSLRLSCAASGFAFSRYGMHWVRQAPGKGLEWVAVIWYDGSNKYYADSVKGRFTISRDNSKNTQYLQMNSLRAEDTAVYYCARGGDFLYYYYYGMDVWGQGTTVTVSS
VL: DIQMTQSPSSLSASVGDRVTITCRASQGISNYLAWYQQKTGKVPKFLIYEASTLQSGVPSRFSGGGSGTDFTLTISSLQPEDVATYYCQNYNSAPFTFGPGTKVDIKR
notes: also called 006 PSMA Fab; anti-PSMA Fab
